Measured values reported in publication PMC5240932, “The Nuclear Receptor HIZR-1 Uses Zinc as a Ligand to Mediate Homeostasis in Response to High Zinc”.
Changes are numbered by the printed parent chain.

T1: HIZR-1 WT (Caenorhabditis elegans, UniProt G5ED47 1-412)
T1 sequence: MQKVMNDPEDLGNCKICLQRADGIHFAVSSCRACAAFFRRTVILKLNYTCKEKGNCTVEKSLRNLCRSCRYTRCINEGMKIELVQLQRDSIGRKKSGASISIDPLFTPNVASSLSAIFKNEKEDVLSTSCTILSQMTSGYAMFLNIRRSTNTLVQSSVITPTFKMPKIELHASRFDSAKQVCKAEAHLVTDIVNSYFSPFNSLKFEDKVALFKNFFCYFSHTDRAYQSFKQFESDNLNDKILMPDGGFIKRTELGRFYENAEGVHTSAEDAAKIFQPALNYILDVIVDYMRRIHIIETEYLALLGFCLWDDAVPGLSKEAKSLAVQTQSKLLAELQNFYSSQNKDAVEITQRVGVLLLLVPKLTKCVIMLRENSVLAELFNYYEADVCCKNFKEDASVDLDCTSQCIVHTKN

T2: HIZR-1 G23E (Caenorhabditis elegans, UniProt G5ED47 1-412, G23E)
T2 sequence: T1 sequence with G23E

T3: HIZR-1 R63C (Caenorhabditis elegans, UniProt G5ED47 1-412, R63C)
T3 sequence: T1 sequence with R63C

T4: HIZR-1 S30L (Caenorhabditis elegans, UniProt G5ED47 1-412, S30L)
T4 sequence: T1 sequence with S30L

B1: Mutant HZA, unlabeled competitor (dsDNA)
DNA 1: TGTGTTATCAGAACATACAACATTAATGTCTCGAG
DNA 2: CTCGAGACATTAATGTTGTATGTTCTGATAACACA
B2: HZA WT, labeled (cdf-2 promoter) (dsDNA)
DNA 1: TGTGTTATCAATCATAAACTAGAACATGTCTCGAG
DNA 2: CTCGAGACATGTTCTAGTTTATGATTGATAACACA

How the values were obtained:
HIZR-1 WT [1] = molecular target: T1, HIZR-1 WT; experiment: competition; EMSA; 5-5000 nM unlabeled mutant vs labeled HZA; does not compete; Licor Odyssey EMSA Buffer Kit per manufacturer; buffer composition, salt, pH and temperature not stated; conditions: protein: recombinant; tags: N-terminal 6xHis (pTrcHisA)
HIZR-1 G23E = molecular target: T2, HIZR-1 G23E; experiment: EMSA; legend: not bound; text: dramatically reduced; Licor Odyssey EMSA Buffer Kit per manufacturer; buffer composition, salt, pH and temperature not stated; conditions: protein: recombinant; tags: N-terminal 6xHis (pTrcHisA); label: IRDye700
HIZR-1 R63C = molecular target: T3, HIZR-1 R63C; experiment: as above; conditions: protein: recombinant; tags: N-terminal 6xHis (pTrcHisA); label: IRDye700
HIZR-1 WT [2] = molecular target: T1, HIZR-1 WT; experiment: EMSA; apparent Kd; constant protein, variable labeled DNA; Licor Odyssey EMSA Buffer Kit per manufacturer; buffer composition, salt, pH and temperature not stated; conditions: protein: recombinant; tags: N-terminal 6xHis (pTrcHisA); label: IRDye700
HIZR-1 S30L = molecular target: T4, HIZR-1 S30L; experiment: EMSA; legend: not bound; text: dramatically reduced; faint fast band of unknown significance; Licor Odyssey EMSA Buffer Kit per manufacturer; buffer composition, salt, pH and temperature not stated; conditions: protein: recombinant; tags: N-terminal 6xHis (pTrcHisA); label: IRDye700

Row | Binder | binding result (HIZR-1 WT [1]) | binding result (HIZR-1 G23E) | binding result (HIZR-1 R63C) | Kd (HIZR-1 WT [2]) [nM] | binding result (HIZR-1 S30L)
1 | B1 | no binding |  |  |  | 
2 | B2 |  | no binding | no binding | 20.4 ± 6.8 | no binding
